Measurements: patent US20200223889A1 (Novo Nordisk, published 2020)
Positions of bridges follow the written chain, without caps; N, C: chain ends. Non-standard residues stand in square brackets, D forms with d. Cit = NC(=O)NCCC[C@H](N)C(=O)O; Api = NC1(C(=O)O)CCNCC1

Columns and labels:
[1] = target: T1, human melanocortin 4 receptor (human, UniProt P32245 1-332); test: cell-based or functional assay
[2] = target: human melanocortin 1 receptor (human, UniProt Q01726 1-317); test: cell-based or functional assay
[3] = target: T1, human melanocortin 4 receptor; test: competition with 125-NDP-α-MSH, BHK human MC4R membranes
Description: In order to assess the binding affinity of the selected compounds for the human MC4R competitive binding assays was performed with radiolabeled NDP-alpha MSH (¹²⁵NDP-α-MSH).
The assay was performed in 96-well filterplates (Unifilter) using BHK cells stably expressing the human MC4 receptor.
The BHK cell membranes were prepared from frozen or fresh cells that were homogenized in 20 mM HEPES pH 7.1, 5 mM MgCl₂, 1 mg/ml bacitracin (buffer 1) and centrifuged at 15000 rpm at 4° C., 10 min in a Sorvall RC 5B plus, SS-34 rotor. The supernatant was discarded, and the pellets were re-suspended in buffer 1, homogenized and centrifuged two more times. The final pellets were re-suspended in buffer 1 and the protein concentration was measured and adjusted with buffer 1 to 5 mg/ml and the membrane preparation was kept at −80° C. until assay. The assay was run on a dilution of this cell membrane suspension without any further preparation. The suspension was diluted to give maximally 10% specific binding, i.e. to approx. 50-100 fold dilution, optimized after each membrane preparation. The assay was performed in a total volume of 200 μl: 50 μl of cell suspension, 50 μl of ¹²⁵NDP-α-MSH (apx. […] in final concentration), 50 μl of test compound and 50 μl binding buffer were mixed and incubated for 2 h at 25° C. (binding buffer: 25 mM HEPES, pH 7.0, 1 mM CaCl₂), 1 mM MgSO₄, 1 mM EGTA, 0.005% Tween™ 20 and 0.1% HSA or, alternatively, 0.1% ovalbumin (Sigma; catalogue No. A-5503)). Test compounds were dissolved in 100% DMSO and diluted in binding buffer in a dose range from 1 μM to 0.001 nM. Radiolabelled ligand and membranes were diluted in binding buffer. The incubation was stopped by dilution with 8×100 μl ice-cold 0.9% NaCl. The radioactivity retained on the filters was counted using a Packard Topcounter. The data were analysed by non-linear regression analysis of binding curves, using the Windows™ program GraphPad™ Prism (GraphPad Software, USA).

T1 sequence (P32245 whole entry): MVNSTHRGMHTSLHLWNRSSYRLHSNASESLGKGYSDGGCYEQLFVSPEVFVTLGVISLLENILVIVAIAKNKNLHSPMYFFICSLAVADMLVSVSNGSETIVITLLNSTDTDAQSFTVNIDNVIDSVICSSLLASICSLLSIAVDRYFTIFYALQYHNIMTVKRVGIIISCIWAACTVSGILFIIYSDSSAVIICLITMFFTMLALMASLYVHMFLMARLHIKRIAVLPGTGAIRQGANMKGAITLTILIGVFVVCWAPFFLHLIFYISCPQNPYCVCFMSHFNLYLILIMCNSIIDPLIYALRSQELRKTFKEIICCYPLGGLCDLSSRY
Chain of human melanocortin 1 receptor (Q01726 whole entry): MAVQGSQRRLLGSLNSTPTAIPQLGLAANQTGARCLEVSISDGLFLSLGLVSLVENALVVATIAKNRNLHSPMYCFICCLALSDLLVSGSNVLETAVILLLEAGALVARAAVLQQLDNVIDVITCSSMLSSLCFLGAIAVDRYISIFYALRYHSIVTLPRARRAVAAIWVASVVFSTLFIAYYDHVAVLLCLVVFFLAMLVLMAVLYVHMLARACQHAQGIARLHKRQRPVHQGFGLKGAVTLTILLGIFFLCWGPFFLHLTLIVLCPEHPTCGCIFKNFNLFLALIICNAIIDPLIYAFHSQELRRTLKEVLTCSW

Row | Binder | MC4R cAMP EC50 [1] | MC1R cAMP EC50 [2] | Ki [3]
1 | cyclo(CH[dF]RWECH[dF]RWE) (disulfide 1-7; SMILES N=C(N)NCCC[C@@H]1NC(=O)[C@@H](Cc2ccccc2)NC(=O)[C@H](Cc2c[nH]cn2)NC(=O)[C@@H]2CSSC[C@H](NC(=O)[C@H](CCC(=O)O)NC(=O)[C@H](Cc3c[nH]c4ccccc34)NC1=O)C(=O)N[C@@H](Cc1c[nH]cn1)C(=O)N[C@H](Cc1ccccc1)C(=O)N[C@@H](CCCNC(=N)N)C(=O)N[C@@H](Cc1c[nH]c3ccccc13)C(=O)N[C@@H](CCC(=O)O)C(=O)N2, also called c[c[Cys-His-D-Phe-Arg-Trp-Glu-Cys]-His-D-Phe-Arg-Trp-Glu]) [Chem. 1] | 14.9 nM | 198 nM | 47.9 nM
2 | cyclo(CKH[dF][Cit]WCKH[dF][Cit]W) (disulfide 1-7; SMILES NCCCC[C@@H]1NC(=O)[C@@H]2CSSC[C@H](NC(=O)[C@H](Cc3c[nH]c4ccccc34)NC(=O)[C@H](CCCNC(N)=O)NC(=O)[C@@H](Cc3ccccc3)NC(=O)[C@H](Cc3c[nH]cn3)NC1=O)C(=O)N[C@@H](CCCCN)C(=O)N[C@@H](Cc1c[nH]cn1)C(=O)N[C@H](Cc1ccccc1)C(=O)N[C@@H](CCCNC(N)=O)C(=O)N[C@@H](Cc1c[nH]c3ccccc13)C(=O)N2, also called c[c[Cys-Lys-His-D-Phe-Cit-Trp-Cys]-Lys-His-D-Phe-Cit-Trp]) [Chem. 55] | 0.1 nM | 4.14 nM | 0.33 nM
3 | cyclo(CEH[dF]RWCEH[dF]RW) (disulfide 1-7; SMILES N=C(N)NCCC[C@@H]1NC(=O)[C@@H](Cc2ccccc2)NC(=O)[C@H](Cc2c[nH]cn2)NC(=O)[C@H](CCC(=O)O)NC(=O)[C@@H]2CSSC[C@H](NC(=O)[C@H](Cc3c[nH]c4ccccc34)NC1=O)C(=O)N[C@@H](CCC(=O)O)C(=O)N[C@@H](Cc1c[nH]cn1)C(=O)N[C@H](Cc1ccccc1)C(=O)N[C@@H](CCCNC(=N)N)C(=O)N[C@@H](Cc1c[nH]c3ccccc13)C(=O)N2, also called c[c[Cys-Glu-His-D-Phe-Arg-Trp-Cys]-Glu-His-D-Phe-Arg-Trp]) [Chem. 51] | 0.2 nM | 2.69 nM | 0.5 nM
4 | cyclo(C[Api]H[dF]HWC[Api]H[dF]HW) (disulfide 1-7; SMILES O=C1N[C@H]2CSSC[C@H](NC(=O)[C@H](Cc3c[nH]c4ccccc34)NC(=O)[C@H](Cc3c[nH]cn3)NC(=O)[C@@H](Cc3ccccc3)NC(=O)[C@H](Cc3c[nH]cn3)NC(=O)C3(CCNCC3)NC2=O)C(=O)NC2(CCNCC2)C(=O)N[C@@H](Cc2c[nH]cn2)C(=O)N[C@H](Cc2ccccc2)C(=O)N[C@@H](Cc2c[nH]cn2)C(=O)N[C@H]1Cc1c[nH]c2ccccc12, also called c[c[Cys-ACP-His-D-Phe-His-Trp-Cys]-ACP-His-D-Phe-His-Trp]) [Chem. 50] | 1.17 nM | 66.2 nM | 19.9 nM
5 | cyclo(CPH[dF]HWCAKKKW) (disulfide 1-7, also called c[c[Cys-Pro-His-D-Phe-His-Trp-Cys]-Ala-Lys-Lys-Lys-Trp]) [Chem. 62] | 0.17 nM | > 1 nM | 0.13 nM
6 | cyclo(CAH[dF]HWCAKKKW) (disulfide 1-7; SMILES C[C@@H]1NC(=O)[C@@H]2CSSC[C@H](NC(=O)[C@H](Cc3c[nH]c4ccccc34)NC(=O)[C@H](Cc3c[nH]cn3)NC(=O)[C@@H](Cc3ccccc3)NC(=O)[C@H](Cc3c[nH]cn3)NC1=O)C(=O)N[C@@H](C)C(=O)N[C@@H](CCCCN)C(=O)N[C@@H](CCCCN)C(=O)N[C@@H](CCCCN)C(=O)N[C@@H](Cc1c[nH]c3ccccc13)C(=O)N2, also called c[c[Cys-Ala-His-D-Phe-His-Trp-Cys]-Ala-Lys-Lys-Lys-Trp]) [Chem. 60] | 0.17 nM | 53.3 nM | 0.1 nM
7 | cyclo(CPH[dF]HWCKKKKW) (disulfide 1-7, also called c[c[Cys-Pro-His-D-Phe-His-Trp-Cys]-Lys-Lys-Lys-Lys-Trp]) [Chem. 75] | 0.44 nM | 68 nM | 0.11 nM
8 | cyclo(CPH[dF]HWCAKKKR) (disulfide 1-7; SMILES C[C@@H]1NC(=O)[C@@H]2CSSC[C@H](NC(=O)[C@H](CCCNC(=N)N)NC(=O)[C@H](CCCCN)NC(=O)[C@H](CCCCN)NC(=O)[C@H](CCCCN)NC1=O)C(=O)N1CCC[C@H]1C(=O)N[C@@H](Cc1c[nH]cn1)C(=O)N[C@H](Cc1ccccc1)C(=O)N[C@@H](Cc1c[nH]cn1)C(=O)N[C@@H](Cc1c[nH]c3ccccc13)C(=O)N2, also called c[c[Cys-Pro-His-D-Phe-His-Trp-Cys]-Ala-Lys-Lys-Lys-Arg]) [Chem. 71] | 0.08 nM | 33.2 nM | 0.05 nM
9 | cyclo(CAH[dF]QWCAK[dK]KW) (disulfide 1-7; SMILES C[C@@H]1NC(=O)[C@@H]2CSSC[C@H](NC(=O)[C@H](Cc3c[nH]c4ccccc34)NC(=O)[C@H](CCC(N)=O)NC(=O)[C@@H](Cc3ccccc3)NC(=O)[C@H](Cc3c[nH]cn3)NC1=O)C(=O)N[C@@H](C)C(=O)N[C@@H](CCCCN)C(=O)N[C@H](CCCCN)C(=O)N[C@@H](CCCCN)C(=O)N[C@@H](Cc1c[nH]c3ccccc13)C(=O)N2, also called c[c[Cys-Ala-His-D-Phe-Gln-Trp-Cys]-Ala-Lys-D-Lys-Lys-Trp]) [Chem. 57] | 0.19 nM | 10.4 nM | 0.21 nM
10 | cyclo(CKH[dF]HWCAKKKW) (disulfide 1-7; SMILES C[C@@H]1NC(=O)[C@@H]2CSSC[C@H](NC(=O)[C@H](Cc3c[nH]c4ccccc34)NC(=O)[C@H](CCCCN)NC(=O)[C@H](CCCCN)NC(=O)[C@H](CCCCN)NC1=O)C(=O)N[C@@H](CCCCN)C(=O)N[C@@H](Cc1c[nH]cn1)C(=O)N[C@H](Cc1ccccc1)C(=O)N[C@@H](Cc1c[nH]cn1)C(=O)N[C@@H](Cc1c[nH]c3ccccc13)C(=O)N2, also called c[c[Cys-Lys-His-D-Phe-His-Trp-Cys]-Ala-Lys-Lys-Lys-Trp]) [Chem. 76] | 0.16 nM | 21.8 nM | 0.09 nM
11 | cyclo(CEH[dF]HWCEH[dF]HW) (disulfide 1-7; SMILES O=C(O)CC[C@@H]1NC(=O)[C@@H]2CSSC[C@H](NC(=O)[C@H](Cc3c[nH]c4ccccc34)NC(=O)[C@H](Cc3c[nH]cn3)NC(=O)[C@@H](Cc3ccccc3)NC(=O)[C@H](Cc3c[nH]cn3)NC1=O)C(=O)N[C@@H](CCC(=O)O)C(=O)N[C@@H](Cc1c[nH]cn1)C(=O)N[C@H](Cc1ccccc1)C(=O)N[C@@H](Cc1c[nH]cn1)C(=O)N[C@@H](Cc1c[nH]c3ccccc13)C(=O)N2, also called c[c[Cys-Glu-His-D-Phe-His-Trp-Cys]-Glu-His-D-Phe-His-Trp]) [Chem. 53] | 11 nM | > 10 nM | 9.47 nM
12 | cyclo(CRH[dF][Cit]WCRH[dF][Cit]W) (disulfide 1-7; SMILES N=C(N)NCCC[C@@H]1NC(=O)[C@@H]2CSSC[C@H](NC(=O)[C@H](Cc3c[nH]c4ccccc34)NC(=O)[C@H](CCCNC(N)=O)NC(=O)[C@@H](Cc3ccccc3)NC(=O)[C@H](Cc3c[nH]cn3)NC1=O)C(=O)N[C@@H](CCCNC(=N)N)C(=O)N[C@@H](Cc1c[nH]cn1)C(=O)N[C@H](Cc1ccccc1)C(=O)N[C@@H](CCCNC(N)=O)C(=O)N[C@@H](Cc1c[nH]c3ccccc13)C(=O)N2, also called c[c[Cys-Arg-His-D-Phe-Cit-Trp-Cys]-Arg-His-D-Phe-Cit-Trp]) [Chem. 54] | 0.04 nM | 0.29 nM | 0.21 nM
13 | cyclo(CKH[dF]HWCKH[dF]HW) (disulfide 1-7; SMILES NCCCC[C@@H]1NC(=O)[C@@H]2CSSC[C@H](NC(=O)[C@H](Cc3c[nH]c4ccccc34)NC(=O)[C@H](Cc3c[nH]cn3)NC(=O)[C@@H](Cc3ccccc3)NC(=O)[C@H](Cc3c[nH]cn3)NC1=O)C(=O)N[C@@H](CCCCN)C(=O)N[C@@H](Cc1c[nH]cn1)C(=O)N[C@H](Cc1ccccc1)C(=O)N[C@@H](Cc1c[nH]cn1)C(=O)N[C@@H](Cc1c[nH]c3ccccc13)C(=O)N2, also called c[c[Cys-Lys-His-D-Phe-His-Trp-Cys]-Lys-His-D-Phe-His-Trp]) [Chem. 52] | 0.23 nM | 47.7 nM | 0.76 nM
14 | cyclo(CH[dF]RWACH[dF]RWA) (disulfide 1-7; SMILES C[C@@H]1NC(=O)[C@H](Cc2c[nH]c3ccccc23)NC(=O)[C@H](CCCNC(=N)N)NC(=O)[C@@H](Cc2ccccc2)NC(=O)[C@H](Cc2c[nH]cn2)NC(=O)[C@@H]2CSSC[C@H](NC1=O)C(=O)N[C@@H](Cc1c[nH]cn1)C(=O)N[C@H](Cc1ccccc1)C(=O)N[C@@H](CCCNC(=N)N)C(=O)N[C@@H](Cc1c[nH]c3ccccc13)C(=O)N[C@@H](C)C(=O)N2, also called c[c[Cys-His-D-Phe-Arg-Trp-Ala-Cys]-His-D-Phe-Arg-Trp-Ala]) [Chem. 5] | 0.21 nM | 6.47 nM | 0.99 nM
